Reference: patent publication WO2006085967A2

What was measured:
[1] = target: extracellular region of human F158 FcγRIIIa with C-terminal 6x His-tag and GST-tag (human) (UniProt P08637); assay: SPR (Table 3, not reproduced); receptor immobilized, antibody flowed
[2] = target: extracellular region of human V158 FcγRIIIa with C-terminal 6x His-tag and GST-tag (human) (UniProt P08637); assay: as above
[3] = target: T1, extracellular region of human FcγRIIIa, allotype not stated where cited (His/GST-tagged) (human) (UniProt P08637); assay: AlphaScreen competition, Figure 15
T1 sequence (P08637 17-208): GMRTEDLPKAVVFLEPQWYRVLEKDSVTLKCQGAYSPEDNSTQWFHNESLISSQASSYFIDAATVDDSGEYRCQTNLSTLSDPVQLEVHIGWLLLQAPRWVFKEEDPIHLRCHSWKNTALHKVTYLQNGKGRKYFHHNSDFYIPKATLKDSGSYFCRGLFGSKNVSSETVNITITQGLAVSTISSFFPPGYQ

[4] = target: T1, extracellular region of human FcγRIIIa, allotype not given (His/GST-tagged) (human); assay: AlphaScreen, Figure 15; fold vs WT for FcγRIIIa divided by fold vs WT for FcγRIIb
[5] = target: human FcγRIIIa on PBMCs expressing heterozygous V158/F158 FcγRIIIa (human) (UniProt P08637); assay: cell-based or functional assay
Sequence of human FcγRIIIa on PBMCs expressing heterozygous V158/F158 FcγRIIIa (human) (P08637 17-254): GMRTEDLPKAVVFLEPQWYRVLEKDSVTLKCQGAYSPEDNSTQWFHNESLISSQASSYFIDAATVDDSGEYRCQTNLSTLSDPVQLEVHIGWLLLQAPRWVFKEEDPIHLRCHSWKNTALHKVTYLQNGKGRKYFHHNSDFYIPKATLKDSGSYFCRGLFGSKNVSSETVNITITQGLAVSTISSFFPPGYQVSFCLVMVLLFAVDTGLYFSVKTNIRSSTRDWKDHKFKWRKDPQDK

[6] = target: extracellular region of human F158 FcγRIIIa with C-terminal 6x His-tag and GST-tag (human) (UniProt P08637); assay: SPR; receptor immobilized, antibody flowed

Sequence of extracellular region of human F158 FcγRIIIa with C-terminal 6x His-tag and GST-tag (human) (P08637 17-208): as the sequence (P08637 17-208) above
Sequence of extracellular region of human V158 FcγRIIIa with C-terminal 6x His-tag and GST-tag (human) (P08637 17-208 F176V): as the sequence (P08637 17-208) above, with F160V counted along it

fold improvement over WT [1] [fold]	fold improvement over WT [2] [fold]	FcγRIIIa-fold (fold affinity relative to WT) [3] [fold]	ADCC log(EC50), DoHH-2 target cells [5]	fold enhancement in ADCC over WT alemtuzumab [5] [fold]	Substance	other results
4.7	1.7	–	–	–	S298A/E333A/K334A alemtuzumab (antibody)	–
14	4	–	0.6	2.5	V264I/I332E alemtuzumab (antibody)	Kd [6]: 52 nM
–	–	–	0.49	3.3	S239D/I332E alemtuzumab (antibody)	–

More lines, now with the values behind:

Substance	fold improvement over WT [1] [fold]	fold improvement over WT [2] [fold]	FcγRIIIa-fold (fold affinity relative to WT) [3] [fold]	ADCC log(EC50), DoHH-2 target cells [5]	fold enhancement in ADCC over WT alemtuzumab [5] [fold]	other results
I332E alemtuzumab (antibody)	10.1	–	–	–	–	–
S239D/A330L/I332E Fc variant antibody (Figure 15; antibody context not stated)	–	–	139	–	–	FcγRIIIa-fold:FcγRIIb-fold ratio [4]: 18
S239D/I332E Fc variant antibody (Figure 15; antibody context not stated)	–	–	192	–	–	–
